# Experimental data published in doi:10.1101/292912 (bioRxiv, 2018).
# Target: the molecule itself
# Assay: dynamic light scattering
protein,measurement,value
Δ68-269 SaMGT (transmembrane domain-less monoglycosyltransferase from S. aureus) (domain or fragment) DNVDELRKIENKSSFVSADNMPEYVKGAFISMEDERFYNHHGFDLKGTTRALFSTISDRDVQGGSTITQQVVKNYFYDNDRSFTRKVKELFVAHRVEKQYNKNEILSFYLNNIYFGDNQYTLEGAANHYFGTTVNKNSTTMSHITVLQSAILASKVNAPSVYNINNMSENFTQRVSTNLEKMKQQNYINETQYQQAMSQLNR,binding result,binds
